From US7351689
Residue numbers refer to the chain shown, from its start.

B1: IL-28B (SEQ ID NO: 6) (ligand)
chain: VPVARLRGALPDARGCHIAQFKSLSPQELQAFKRAKDALEESLLLKDCKCRSRLFPRTWDLRQLQVRERPVALEAELALTLKVLEATADTDPALGDVLDQPLHTLHHILSQLRACIQPQPTAGPRTRGRLHHWLHRLQEAPKKESPGCLEASVTFNLFRLLTRDLNCVASGDLCV
B2: human zcytor19-Fc/human CRF2-4-Fc heterodimer (Fc fusion, from a related filing, not shown: a dimerising Fc or GST)
chain 1: RPRLAPPQNVTLLSQNFSVYLTWLPGLGNPQDVTYFVAYQSSPTRRRWREVEECAGTKELLCSMMCLKKQDLYNKFKGRVRTVSPSSKSPWVESEYLDYLFEVEPAPPVLVLTQTEEILSANATYQLPPCMPPLDLKYEVAFWKEGAGNKTLFPVTPHGQPVQITLQPAASEHHCLSARTIYTFSVPKYSKFSKPTCFLLEVPEANWA
chain 2: MVPPPENVRMNSVNFKNILQWESPAFAKGNLTFTAQYLSYRIFQDKCMNTTLTECDFSSLSKYGDHTLRVRAEFADEHSDWVNITFCPVDDTIIGPPGMQVEVLADSLHMRFLAPKIENEYETWTMKNVYNSWTYNVQYWKNGTDEKFQITPQYDFEVLRNLEPWTTYCVQVRGFLPDRNKAGEWSEPVCEQTTHDETVPS
modifications: left off: a dimerising Fc or GST
B3: human CRF2-4-Fc homodimer (Fc fusion, from a related filing)
chain: B2 chain 2
modifications: left off: a dimerising Fc or GST
B4: human zcytor19-Fc homodimer (Fc fusion, not shown: a dimerising Fc or GST)
chain: B2 chain 1
B5: murine zcytor19-Ig homodimer (Fc fusion, mouse, UniProt Q8CGK5 21-227, looked up, not shown: a dimerising Fc or GST)
chain: RPRLAPPRNVTLFSQNFTVYLTWLPGLGSPPNVTYFVTYQSYIKTGWRPVEHCAGIKALVCPLMCLKKLNLYSKFKGRVQAASAHGRSPRVESRYLEYLFDVELAPPTLVLTQMEKILRVNATYQLPPCMPSLELKYQVEFWKEGLGSKTLFPDTPYGQPVQIPLQQGASRRHCLSARTVYTLIDIKYSQFSEPSCIFLEAPGDKRA

Legend:
Experiment in all cases: cell-based or functional assay
[1] = target: human IL-28 receptor on transfected 293 HEK cells (IL-28 receptor alpha subunit with endogenous CRF2-4) (human)
[2] = target: T1, zcyto20 (IL-28A), human (human) (UniProt Q8IZJ0)
T1 sequence: B1 chain with R7H, K49R, R51H, V71M, G95V, L112F, H135Y

[3] = target: T2, zcyto24 (mouse IL-28) (mouse) (UniProt Q4VK74)
T2 sequence: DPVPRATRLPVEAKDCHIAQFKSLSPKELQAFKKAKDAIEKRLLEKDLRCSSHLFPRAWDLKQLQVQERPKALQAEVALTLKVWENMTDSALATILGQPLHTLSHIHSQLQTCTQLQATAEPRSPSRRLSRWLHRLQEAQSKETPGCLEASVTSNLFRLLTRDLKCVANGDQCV

[4] = target: zcyto21 (SEQ ID NO:15) (human) (UniProt Q8IU54)
zcyto21 (SEQ ID NO:15) (human), sequence (Q8IU54 other isoform, or with tags, fused parts or gaps): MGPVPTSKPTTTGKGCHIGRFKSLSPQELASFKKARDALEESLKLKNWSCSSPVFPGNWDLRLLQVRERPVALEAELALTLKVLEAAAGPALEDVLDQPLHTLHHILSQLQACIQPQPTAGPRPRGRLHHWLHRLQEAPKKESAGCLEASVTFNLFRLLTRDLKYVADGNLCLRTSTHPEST

human IL-28 receptor on transfected 293 HEK cells (IL-28 receptor alpha subunit with endogenous CRF2-4) (human), sequence (Q8IU57 whole entry, chain 1 of 2): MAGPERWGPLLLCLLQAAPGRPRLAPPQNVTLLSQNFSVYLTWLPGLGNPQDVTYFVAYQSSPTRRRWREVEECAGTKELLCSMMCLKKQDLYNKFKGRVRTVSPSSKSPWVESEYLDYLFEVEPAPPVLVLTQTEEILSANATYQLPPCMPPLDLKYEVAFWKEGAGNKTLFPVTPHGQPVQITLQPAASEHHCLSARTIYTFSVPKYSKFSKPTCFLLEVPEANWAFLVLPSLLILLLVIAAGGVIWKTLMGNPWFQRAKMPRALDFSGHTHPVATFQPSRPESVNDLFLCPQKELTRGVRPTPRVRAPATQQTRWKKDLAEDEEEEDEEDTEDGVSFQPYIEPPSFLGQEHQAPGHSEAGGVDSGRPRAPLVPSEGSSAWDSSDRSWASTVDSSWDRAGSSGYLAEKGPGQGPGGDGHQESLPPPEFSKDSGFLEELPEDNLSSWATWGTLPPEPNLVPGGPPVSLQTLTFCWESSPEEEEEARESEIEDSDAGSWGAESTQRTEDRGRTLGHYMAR
human IL-28 receptor on transfected 293 HEK cells (IL-28 receptor alpha subunit with endogenous CRF2-4) (human), sequence (Q08334 whole entry, chain 2 of 2, further chain): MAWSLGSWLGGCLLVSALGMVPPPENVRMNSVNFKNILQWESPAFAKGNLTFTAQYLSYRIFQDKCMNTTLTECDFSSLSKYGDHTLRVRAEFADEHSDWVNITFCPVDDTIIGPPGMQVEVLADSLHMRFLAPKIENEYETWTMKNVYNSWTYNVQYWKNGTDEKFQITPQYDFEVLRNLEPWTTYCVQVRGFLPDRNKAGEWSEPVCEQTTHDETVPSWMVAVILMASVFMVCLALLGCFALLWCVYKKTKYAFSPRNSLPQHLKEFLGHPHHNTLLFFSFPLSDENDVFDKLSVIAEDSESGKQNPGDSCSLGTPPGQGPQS

Row | Binder | ISRE Signaling of Transfected 293 Cells Following Class II Cytokine Stimulation (Fold Induction), ISRE-Luc./IL-28R, IL-28B 125 ng/ml (fold induction) [1] | Percent Inhibition of Ligand-induced Interferon Stimulated Response Element (ISRE) Signaling by Soluble Receptors (10 ng/ml ligand, 10 micrograms/ml soluble receptor) [2] [%] | Percent Inhibition of Ligand-induced Interferon Stimulated Response Element (ISRE) Signaling by Soluble Receptors (10 ng/ml ligand, 10 micrograms/ml soluble receptor) [3] [%] | Percent Inhibition of Ligand-induced Interferon Stimulated Response Element (ISRE) Signaling by Soluble Receptors (10 ng/ml ligand, 10 micrograms/ml soluble receptor) [4] [%]
1 | B1 | 104 | – | – | –
2 | B2 | – | 16 | 47 | 16
3 | B3 | – | 80 | 82 | 79
4 | B4 | – | 92 | 90 | 45
5 | B5 | – | 91 | 89 | 103
